Substitutions are numbered along the chain they refer to.

By EC50 is commonly meant the concentration needed to bring the measured effect to its halfway point.

Test [1] has as its target human EGFRvIII-hFc protein (human) (UniProt P00533). The test can be described thus: ELISA, EGFRvIII-hFc coated. On the technique in general: An ELISA detects its analyte on a solid surface through an enzyme-linked reagent.
In test [2] the target is human EGFRvIII protein on the cell surface (human) (UniProt P00533). Nature of the test: FACS on U87MG-EGFRvIII cells.
Test [3] concerns the target T1, human EGFRvIII-hFc protein (human, UniProt P00533 25-645).
T1 construct: extracellular domain; also called immunogen A; hFc-tagged EGFRvIII protein; not shown: human IgG Fc fragment (hFc) of the pCpC vector
The test can be described thus: ELISA, EGFRvIII-hFc coated. The procedure:
The purified humanized anti-EGFRvIII antibody obtained in example 12 is reacted with a human EGFRvIII-hFc protein.
The purified immunogen A (EGFRvIII-hFc) obtained in example 1 (for the preparation method, see step (I) in example 1) is diluted with PBS to a final concentration of 1.0 μg/mL, and then added to a 96-well ELISA plate at 100 μl/well. The plate is sealed with a plastic film and incubated at 4° C. overnight. The next day, the plate is washed twice with a plate washing solution [PBS+0.01% (v/v) Tween20], and added with a blocking solution [PBS+0.01% (v/v) Tween20+1% (w/w) BSA] for blocking 2 hours at room temperature. […] The plate is incubated for 2 hours at 37° C., and then washed 3 times with the plate washing solution [PBS+0.01% (v/v) Tween20]. The plate is added with an HRP (horseradish peroxidase) labeled secondary antibody (purchased from Sigma), incubated at 37° C. for 2 hours, and then washed 3 times with the plate washing solution [PBS+0.01% (v/v) Tween20]. The plate is added with 100 μl of TMB substrate/well, incubated for 30 minutes at room temperature, and then added with 100 μl of stopping solution (1.0N HCl)/well. A450 nm value is read using an ELISA plate reader (SpectraMax 384plus, purchased from Molecular Device).

Test [4] addresses T2, human EGFRvIII protein on the cell surface (human, UniProt P00533 25-1210).
T2 construct: whole, on cells; the cell line is named under assay; also called hEGFRvIII; U87MG-hEGFRvIII
The test can be described thus: FACS on U87MG-EGFRvIII cells. As for the experimental part: The preparation of U87MG-EGFRvIII required for FACS detection is as described in the preparation of the immunogen B in example 1. Normal human primary hepatocytes are purchased from BioreclamationIVT, and A431 tumor cells are purchased from ATCC. The recovered hepatocytes are directly used for FACS detection, and the recovered U87MG-EGFRvIII and A431 cells are subjected to an expanded culture to 90% confluence in a T-75 cell culture flask; the medium is sucked out, and the cells are washed twice with a HBSS buffer (Hanks Balanced Salt Solution) (purchased from Invitrogen), and then treated with an enzyme-free cell dissociation solution (Versene solution: purchased from Life Technology) and collected. The cells are washed twice with the HBSS buffer and are counted, and then the cells are diluted with the HBSS buffer to 2×10⁶ cells/ml, added with 1% goat serum blocking solution, with the percentage being the mass percentage, and incubated on ice for 30 minutes, and then centrifugally washed twice with the HBSS buffer. The collected cells are resuspended to 2×10⁶ cells/mL with an FACS buffer (HBSS+2% FBS, with the percentage being the volume percentage), added to a 96-well FACS reaction plate at 100 μL/well, then added with 100 μL/well of the purified EGFRvIII antibody (samples to be tested) obtained in example 12, and incubated on ice for 2 hours. The plate is centrifugally washed twice with the FACS buffer, added with 100 μL/well of a 1:1000 diluted fluorescence (Alexa 488) labeled secondary antibody (purchased from Invitrogen), and incubated on ice for 1 hour. The plate is centrifugally washed 3 times with the FACS buffer, added with 100 μL/well of a fixing solution [4% (v/v) paraformaldehyde] to resuspend the cells, and centrifugally washed twice with the FACS buffer after 10 minutes. The cells are resuspended in 100 μL of the FACS buffer, and the results are detected and analyzed by FACS (FACS Calibur, purchased from BD). Data analysis is performed by using the software (CellQuest) to obtain the mean fluorescence intensity (MFI) of the cells. Data is further analyzed by using the software (GraphPad Prism5) to perform data fitting and calculate EC50.

B1: Humanized antibody h75G7C6-3 (antibody, human IgG1, V domains shown)
VH: EVQLVQSGAEVKKPGASVKVSCKASGYTFTDYNMDWVKQAPGQGLEWIGDINPNNADTIYNQKFKGRVTLTVDKSTSTVYMELSSLRSEDTAVYYCARGDYDGYYPVYYAMDYWGQGTTVTVSS
VL: ENVLTQSPATLSLSPGERATLSCRASSSVSSSYLHWYQQKPGQSPRLLIFSTSNLAAGIPARFSGSGSGTDYTLTISSLEPEDFAVYYCQQYSGYPLTFGGGTKVEIK
In test [1], B1 gave a concentration giving a half-maximal response (EC50) of 0.51 nM and a Maximum OD450 value of 3.44 OD450. Also, in test [2], the EC50 stood at 5.6 nM and the Maximum mean fluorescence intensity was determined as 18600 MFI.

B2: Humanized antibody h75G7C6-4 (antibody, human IgG1, V domains shown)
VH: B1 VH
VL: B1 VL with I59V
In test [1], B2 showed an EC50 of 0.45 nM and a Maximum OD450 value of 3.37 OD450. Moreover, in test [2], the EC50 is 5.57 nM and the Maximum mean fluorescence intensity is 18700 MFI.

B3: Humanized antibody h75G7C6-6 (antibody, human IgG1, V domains shown)
VH: B1 VH with E1Q, K38R, I48M, L70M, V72R, K74T
VL: B1 VL with S44A
In test [1], B3 yielded an EC50 of 0.68 nM and a Maximum OD450 value of 3.2 OD450. Moreover, in test [2], the EC50 is 5.96 nM and the Maximum mean fluorescence intensity turned out to be 17100 MFI.

B4: Humanized antibody h75G7C6-10 (antibody, human IgG1, V domains shown)
VH: B1 VH with E1Q, K38R, K74T
VL: B1 VL with S44A
notes: also called VH-g1/VL-g1
Take B4: in test [3], the EC50 was determined as 0.66 nM and the “Maximum OD450 value” came to 2.98 OD450. In test [4], the EC50 worked out at 5.32 nM and the “Maximum mean fluorescence intensity” value is 18000 MFI.

B5: Humanized antibody h75G7C6-7 (antibody, human IgG1, V domains shown)
VH: B1 VH with E1Q, K38R, I48M, L70M, V72R, K74T
VL: B1 VL
Take B5: in test [1], the EC50 worked out at 1.1 nM and the Maximum OD450 value is 2.97 OD450. In addition, in test [2], the EC50 is 5.74 nM and the Maximum mean fluorescence intensity amounted to 17200 MFI.

B6: Humanized antibody h75G7C6-11 (antibody, human IgG1, V domains shown)
VH: B1 VH with E1Q, K38R, K74T
VL: B1 VL
notes: also called VH-g1/VL-g2
For the molecule B6, in test [3], the EC50 amounted to 0.67 nM and the “Maximum OD450 value” came out at 2.96 OD450. In addition, in test [4], the EC50 was 5.11 nM and the “Maximum mean fluorescence intensity” value came out at 17600 MFI.

B7: Humanized antibody h75G7C6-12 (antibody, human IgG1, V domains shown)
VH: B1 VH with E1Q, K38R, K74T
VL: B1 VL with I59V
notes: also called VH-g1/VL-g3
As for B7, in test [3], the response was half-maximal at 0.57 nM (EC50) and the “Maximum OD450 value” was 2.73 OD450. In test [4], a half-maximal response (EC50) required 5.2 nM and the “Maximum mean fluorescence intensity” value amounted to 17800 MFI.

B8: Humanized antibody h63A10A7-17 (antibody, human IgG1, V domains shown)
VH: QVQLVQSGAEVKKPGASVKVSCKASGYTFISFTMHWVKQRPGQGLEWIGYINPNSGYTKYNQKFKDKATLTRDTSTSTVYMELSSLRSEDTAVYYCTRGGGRGFAYWGQGTLVTVSS
VL: DILMTQSPSSLSASVGDRVTITCHASQDINSNIGWLQQKPGKSFKALIYHGTNLEDGVPSRFSGSGSGADYTLTISSLQPEDFATYYCVQYAQFPFTFGQGTKLEIK
notes: also called VH-g4/VL-g4
Regarding B8, in test [3], the half-maximal effective concentration (EC50) was 0.01 nM and the “Maximum OD450 value” was determined as 3.71 OD450.

B9: Humanized antibody h63A10A7-23 (antibody, human IgG1, V domains shown)
VH: B8 VH
VL: B8 VL with S43A, F44P
notes: also called VH-g4/VL-g5
Regarding B9, in test [3], a half-maximal effect (EC50) was put at 0.33 nM and the “Maximum OD450 value” was determined as 3.47 OD450. In test [4], a half-maximal response (EC50) required 4.62 nM and the “Maximum mean fluorescence intensity” value amounted to 20200 MFI.

B10: Humanized antibody h63A10A7-39 (antibody, human IgG1, V domains shown)
VH: B8 VH with K67R, A68V
VL: B8 VL with L3Q
notes: also called VH-g8/VL-g3
With B10, in test [3], the concentration for a half-maximal effect (EC50) was determined as 0.24 nM and the “Maximum OD450 value” was 3.6 OD450. In test [4], the EC50 came out at 4.1 nM and the “Maximum mean fluorescence intensity” value stood at 10700 MFI.

B11: Humanized antibody h63A10A7-18 (antibody, human IgG1, V domains shown)
VH: B8 VH with R72A, T74Q, V79A
VL: B8 VL
notes: also called VH-g5/VL-g4
B11: in test [3], the EC50 worked out at 0.01 nM and the “Maximum OD450 value” was 3.71 OD450.

B12: Humanized antibody h63A10A7-37 (antibody, human IgG1, V domains shown)
VH: B8 VH with I48M, L70M
VL: B8 VL with L3Q
notes: also called VH-g6/VL-g3
B12: in test [3], the response was half-maximal at 0.28 nM (EC50) and the “Maximum OD450 value” amounted to 3.6 OD450. Moreover, in test [4], the midpoint of the response, the EC50, lay at 5.35 nM and the “Maximum mean fluorescence intensity” value was 10200 MFI.

B13: Humanized antibody h63A10A7-26 (antibody, human IgG1, V domains shown)
VH: B8 VH
VL: B8 VL with L36Y, Y71F
notes: also called VH-g4/VL-g8
For B13, in test [3], the EC50 turned out to be 0.16 nM and the “Maximum OD450 value” turned out to be 3.65 OD450. Besides, in test [4], the EC50 worked out at 1.79 nM and the “Maximum mean fluorescence intensity” value came to 23700 MFI.

B14: Humanized antibody h63A10A7-22 (antibody, human IgG1, V domains shown)
VH: B8 VH
VL: B8 VL with L3Q
notes: also called VH-g4/VL-g3
For the molecule B14, in test [3], the EC50 came to 0.15 nM and the “Maximum OD450 value” was 3.57 OD450. For the same molecule, in test [4], a half-maximal response (EC50) required 1.58 nM and the “Maximum mean fluorescence intensity” value came to 23500 MFI.

B15: Humanized antibody h63A10A7-38 (antibody, human IgG1, V domains shown)
VH: B8 VH with K38R, R40A
VL: B8 VL with L3Q
notes: also called VH-g7/VL-g3
As to B15, in test [3], the EC50 is 0.22 nM and the “Maximum OD450 value” worked out at 3.7 OD450. In test [4], the midpoint of the response, the EC50, lay at 3.03 nM and the “Maximum mean fluorescence intensity” value was determined as 10700 MFI.

B16: Humanized antibody h63A10A7-20 (antibody, human IgG1, V domains shown)
VH: B8 VH with K38R, R40A
VL: B8 VL
notes: also called VH-g7/VL-g4
As for B16, in test [3], the EC50 is 0.18 nM and the “Maximum OD450 value” stood at 3.55 OD450. In addition, in test [4], a half-maximal effect (EC50) was put at 1.56 nM and the “Maximum mean fluorescence intensity” value turned out to be 22600 MFI.

B17: Humanized antibody h63A10A7-24 (antibody, human IgG1, V domains shown)
VH: B8 VH
VL: B8 VL with A69T
notes: also called VH-g4/VL-g6
Consider B17, for which, in test [3], it took 0.15 nM to reach a half-maximal effect (EC50) and the “Maximum OD450 value” came out at 3.67 OD450. In addition, in test [4], the EC50 was determined as 1.83 nM and the “Maximum mean fluorescence intensity” value turned out to be 24200 MFI.

B18: Humanized antibody h63A10A7-25 (antibody, human IgG1, V domains shown)
VH: B8 VH
VL: B8 VL with L36Y
notes: also called VH-g4/VL-g7
Turning to B18, in test [3], the midpoint of the response, the EC50, lay at 0.17 nM and the “Maximum OD450 value” worked out at 3.61 OD450. Moreover, in test [4], the midpoint of the response, the EC50, lay at 1.32 nM and the “Maximum mean fluorescence intensity” value came to 24700 MFI.

B19: Humanized antibody h63A10A7-19 (antibody, human IgG1, V domains shown)
VH: B8 VH with I48M, L70M
VL: B8 VL
notes: also called VH-g6/VL-g4
As for B19, in test [3], a half-maximal effect (EC50) was put at 0.17 nM and the “Maximum OD450 value” came to 3.63 OD450. In addition, in test [4], the EC50 stood at 3.27 nM and the “Maximum mean fluorescence intensity” value amounted to 21100 MFI.

B20: Humanized antibody h63A10A7-21 (antibody, human IgG1, V domains shown)
VH: B8 VH with K67R, A68V
VL: B8 VL
notes: also called VH-g8/VL-g4
On to B20, for which, in test [3], the EC50 amounted to 0.17 nM and the “Maximum OD450 value” is 3.6 OD450. Also, in test [4], the EC50 amounted to 2.34 nM and the “Maximum mean fluorescence intensity” value was determined as 23500 MFI.

The values above are taken from patent US20210032351A1 (XDCEXPLORER SHANGHAI, published 2021).
